Test results taken from paper PMC10316083, “Thermotoga maritima oriC involves a DNA unwinding element with distinct modules and a DnaA-oligomerizing region with a novel directional binding mode” (The Journal of Biological Chemistry, 2023).

Biological target: the molecule itself
Assay: native gel or EMSA; ATP-bound tmaDnaA on a 30 bp DNA (300 nM) with the oppositely oriented tmaDnaA boxes 2 and 3; complexes with one (C1) or two (C2) tmaDnaA molecules; 8% polyacrylamide gel, GelStar staining; self-interaction read from the preference for C2 on DNA

B1: Thermotoga maritima DnaA initiator (tmaDnaA), wildtype (natural protein, UniProt P46798 1-440, looked up)
chain: MKERILQEIKTRVNRKSWELWFSSFDVKSIEGNKVVFSVGNLFIKEWLEKKYYSVLSKAVKVVLGNDATFEITYEAFEPHSSYSEPLVKKRAVLLTPLNPDYTFENFVVGPGNSFAYHAALEVAKHPGRYNPLFIYGGVGLGKTHLLQSIGNYVVQNEPDLRVMYITSEKFLNDLVDSMKEGKLNEFREKYRKKVDILLIDDVQFLIGKTGVQTELFHTFNELHDSGKQIVICSDREPQKLSEFQDRLVSRFQMGLVAKLEPPDEETRKSIARKMLEIEHGELPEEVLNFVAENVDDNLRRLRGAIIKLLVYKETTGKEVDLKEAILLLKDFIKPNRVKAMDPIDELIEIVAKVTGVPREEILSNSRNVKALTARRIGMYVAKNYLKSSLRTIAEKFNRSHPVVVDSVKKVKDSLLKGNKQLKALIDEVIGEISRRALSG
notes: DnaA chromosomal replication initiator protein of Thermotoga maritima (tmaDnaA); also called WT tmaDnaA; ATP-tmaDnaA; source: purified as described previously (40); plasmid pTHMA-1
B1: binds.
